Reference: the supplement of paper PMC10598134
± gives the standard deviation.

Test: collision cross section of modified peptide (TIMS, N2, iRT-aligned); higher = larger / more extended gas-phase ion
In short: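 Values are averages of 1–3 technical replicates of the most abundant feature for each charge state. Collision cross section was obtained from the Mason-Schamp equation after 1/K0 calibration with three reference ions and run-wise alignment to the median iRT peptide deviation. Synthetic peptide pools (iRT standard spiked 1:40) were separated on a 120-min nanoflow C18 gradient at 60 °C, analysed on a timsTOF Pro/HT (dda-PASEF, nitrogen, ~2.4 mbar) and identified with MaxQuant.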

[1] = charge state: 2, modification: Crotonyl
[2] = charge state: 3, modification: Crotonyl
[3] = charge state: 2, modification: Biotin
[4] = charge state: 3, modification: Biotin
[5] = charge state: 2, modification: Acetyl (K)
[6] = charge state: 2, modification: Glutarylation
[7] = charge state: 3, modification: Glutarylation
[8] = charge state: 2, modification: hydroxyisobutyryl
[9] = charge state: 2, modification: Methyl (K)
[10] = charge state: 3, modification: Methyl (K)
[11] = charge state: 2, modification: Formyl
[12] = charge state: 2, modification: Phospho (Y)
[13] = charge state: 2, modification: HexNAc (ST)
[14] = charge state: 2, modification: Butyryl
[15] = charge state: 3, modification: GlyGly (K)
[16] = charge state: 2, modification: GlyGly (K)
[17] = charge state: 2, modification: Succinyl
[18] = charge state: 3, modification: Succinyl
[19] = charge state: 3, modification: hydroxyisobutyryl
[20] = charge state: 3, modification: Malonyl
[21] = charge state: 2, modification: Malonyl
[22] = charge state: 2, modification: Hydroxyproline
[23] = charge state: 3, modification: Methyl (R)
[24] = charge state: 2, modification: Dimethyl (K)
[25] = charge state: 3, modification: Dimethyl (K)

TLDEILQEKK [_TLDEILQEK(Crotonyl)K_] gave a collision cross section [1] of 381.71 ± 0.8 Å² and a collision cross section [2] of 444.38 ± 1.6 Å².
Work on “SSGPGGQNVNKVNSK [_SSGPGGQNVNK(Biotin)VNSK_]” yielded a collision cross section [3] of 422.28 ± 2 Å² and a collision cross section [4] of 467.62 ± 0.34 Å².
Work on “DAIHFYNKSLAEHR [_DAIHFYNK(Acetyl (K))SLAEHR_]” yielded a collision cross section [5] of 449.95 Å² and a collision cross section (charge state: 3, modification: Acetyl (K)) of 504.71 ± 0.24 Å².
“LQDVSGQLSSSKK [_LQDVSGQLSSSK(Gluratylation)K_]” showed a collision cross section [6] of 404.29 ± 0.99 Å² and a collision cross section [7] of 482.96 ± 1.3 Å².
“PSVSTKLISK [_PSVSTK(hydroxyisobutyryl)LISK_]” showed a collision cross section [8] of 359.8 ± 1.9 Å².
With “STGLELETPSLVPVKK [_STGLELETPSLVPVK(Methyl (K))K_]” the collision cross section [9] was 452.34 ± 2.6 Å² and the collision cross section [10] was 516.69 ± 3.1 Å².
“SSGPGGQNVNKVNSK [_SSGPGGQNVNK(Formyl)VNSK_]” gave a collision cross section [11] of 398.34 ± 0.83 Å² and a collision cross section (charge state: 3, modification: Formyl) of 435.41 ± 4.1 Å².
HIGFVYHPTK [_HIGFVY(Phospho (Y))HPTK_] showed a collision cross section [12] of 384.4 ± 0.77 Å² and a collision cross section (charge state: 3, modification: Phospho (Y)) of 458.98 ± 1.8 Å².
“DLGKFQVATDALK [_DLGK(Acetyl (K))FQVATDALK_]” showed a collision cross section [5] of 405.65 ± 0.97 Å².
Sequence “SVGGSGGGSFGDNLVTR [_SVGGSGGGSFGDNLVT(HexNAc (ST))R_]” has a collision cross section [13] of 423.68 ± 0.13 Å².
Work on “FLQEFYQDDELGKK [_FLQEFYQDDELGK(Gluratylation)K_]” yielded a collision cross section [6] of 453.64 ± 1.5 Å² and a collision cross section [7] of 517.26 Å².
Sequence “ITLSKHQNVQLPR [_ITLSK(Butyryl)HQNVQLPR_]” has a collision cross section [14] of 443.37 ± 0.53 Å² and a collision cross section (charge state: 3, modification: Butyryl) of 503.02 ± 28 Å².
“VFIGNLNTLVVKKK [_VFIGNLNTLVVK(GlyGly (K))KK_]” showed a collision cross section [15] of 502.69 ± 1.1 Å².
“TTGFYSGFSEVAEKR [_TTGFYSGFSEVAEK(GlyGly (K))R_]” gave a collision cross section [16] of 463.26 ± 1.6 Å² and a collision cross section [15] of 525.41 ± 1.1 Å².
“TTGFYSGFSEVAEKR [_TTGFYSGFSEVAEK(Butyryl)R_]” gave a collision cross section [14] of 442.26 ± 0.29 Å².
For “TEVLSPNSKVESK [_TEVLSPNSK(Succinyl)VESK_]”, the collision cross section [17] was 402.26 ± 0.79 Å² and the collision cross section [18] was 458.68 ± 13 Å².
With “IVSGKDYNVTANSK [_IVSGK(Crotonyl)DYNVTANSK_]” the collision cross section [1] was 415.26 ± 1.1 Å².
“SSGPGGQNVNKVNSK [_SSGPGGQNVNK(Methyl (K))VNSK_]” showed a collision cross section [9] of 397.83 ± 2.2 Å² and a collision cross section [10] of 442.38 ± 4.2 Å².
Work on DYSVTANSK [_DY(Phospho (Y))SVTANSK_] yielded a collision cross section [12] of 332.04 ± 0.69 Å².
For “SGNLTEDDKHNNAK [_SGNLTEDDK(hydroxyisobutyryl)HNNAK_]”, the collision cross section [8] was 427.86 ± 0.82 Å² and the collision cross section [19] was 488.54 ± 1.1 Å².
ITGKNQVTATK [_ITGK(Biotin)NQVTATK_] showed a collision cross section [3] of 389.13 ± 1.7 Å².
Work on “SNEEGSEEKGPEVR [_SNEEGSEEK(Formyl)GPEVR_]” yielded a collision cross section [11] of 397.09 ± 0.55 Å².
“YGRGQLNYPLPDFSK [_YGR(Citrullination (R))GQLNYPLPDFSK_]” gave a collision cross section (charge state: 2, modification: Citrullination (R)) of 439.93 ± 0.95 Å² and a collision cross section (charge state: 3, modification: Citrullination (R)) of 492.79 Å².
“DAIHFYNKSLAEHR [_DAIHFYNK(Malonyl)SLAEHR_]” showed a collision cross section [20] of 505.96 ± 0.89 Å².
Sequence VFSIISSEKELK [_VFSIISSEK(Malonyl)ELK_] has a collision cross section [21] of 409.68 ± 0.66 Å².
With “LPTTAASTPDAVDK [_LPT(HexNAc (ST))TAASTPDAVDK_]” the collision cross section [13] was 413.95 ± 0.62 Å².
With DLEEAEEYK [_DLEEAEEY(Phospho (Y))K_] the collision cross section [12] was 369.49 ± 0.064 Å².
For “GDTGLPGPQGIPGGVGSPGR [_GDTGLPGPQGIP(Hydroxyproline)GGVGSPGR_]”, the collision cross section [22] was 430.06 ± 1.1 Å².
Work on LYLPVQNK [_LY(Phospho (Y))LPVQNK_] yielded a collision cross section [12] of 343.68 ± 6.9 Å².
For “GTGRGGGGGGGGGAPR [_GTGR(Methyl (R))GGGGGGGGGAPR_]”, the collision cross section [23] was 445.93 ± 3.2 Å².
Sequence “TGGTQTDLFTCGKCK [_TGGTQTDLFTCGK(GlyGly (K))CK_]” has a collision cross section [16] of 442.06 Å² and a collision cross section [15] of 489.77 ± 1.1 Å².
GTPGKPGPR [_GTPGKP(Hydroxyproline)GPR_] gave a collision cross section [22] of 308.55 Å².
With “VNVEAPDVNLEGLGGKLK [_VNVEAPDVNLEGLGGK(Succinyl)LK_]” the collision cross section [17] was 466.17 ± 1.4 Å² and the collision cross section [18] was 548.55 ± 1.1 Å².
Sequence ILDLKTGTVK [_ILDLK(GlyGly (K))TGTVK_] has a collision cross section [16] of 373.1 ± 0.25 Å² and a collision cross section [15] of 439.15 ± 0.43 Å².
Work on “VLTANSNPSSPSAAKR [_VLTANSNPSSPSAAK(Methyl (K))R_]” yielded a collision cross section [9] of 432.87 ± 1.5 Å² and a collision cross section [10] of 521.25 ± 1.8 Å².
SKLLFSNTAAQK [_SK(Crotonyl)LLFSNTAAQK_] showed a collision cross section [1] of 402.06 ± 0.79 Å².
Sequence “VFIGNLNTLVVKK [_VFIGNLNTLVVK(Crotonyl)K_]” has a collision cross section [1] of 413.58 ± 0.34 Å² and a collision cross section [2] of 479.51 Å².
With “HLRGHGPQPPLR [_HLR(Methyl (R))GHGPQPPLR_]” the collision cross section [23] was 492.6 ± 2.1 Å².
Work on “GERGFPGYPGPK [_GERGFPGYP(Hydroxyproline)GPK_]” yielded a collision cross section (charge state: 3, modification: Hydroxyproline) of 456.01 ± 1.2 Å².
“IVFSGNLFQHQEDSKK [_IVFSGNLFQHQEDSK(Methyl (K))K_]” showed a collision cross section [9] of 490.37 Å² and a collision cross section [10] of 529.21 ± 1.6 Å².
“TEVLSPNSKVESK [_TEVLSPNSK(hydroxyisobutyryl)VESK_]” gave a collision cross section [8] of 419.54 ± 0.31 Å² and a collision cross section [19] of 455.3 ± 1.9 Å².
With “VGVEVPDVNIEGPEGKLK [_VGVEVPDVNIEGPEGK(Succinyl)LK_]” the collision cross section [17] was 461.15 ± 2.6 Å² and the collision cross section [18] was 499.18 Å².
“ITESVAETAQTIKK [_ITESVAETAQTIK(Dimethyl (K))K_]” showed a collision cross section [24] of 449.13 ± 1.2 Å² and a collision cross section [25] of 499.12 ± 1.6 Å².
Work on “SITHSTVGSKGEK [_SITHSTVGSK(Malonyl)GEK_]” yielded a collision cross section [21] of 390.69 ± 2.2 Å² and a collision cross section [20] of 440.36 ± 2.7 Å².
“LQEKVESAQSEQK [_LQEK(Gluratylation)VESAQSEQK_]” gave a collision cross section [6] of 421.97 ± 0.48 Å² and a collision cross section [7] of 507.02 ± 1 Å².
With “DDSFLGKLGGTLAR [_DDSFLGK(Methyl (K))LGGTLAR_]” the collision cross section [9] was 408.16 ± 0.81 Å² and the collision cross section [10] was 476.22 ± 3.5 Å².
“GFPGAPGLPGLK [_GFPGAP(Hydroxyproline)GLPGLK_]” gave a collision cross section [22] of 358.41 ± 0.79 Å².
For “CSVLAAANPVYGR [_CSVLAAANPVY(Phospho (Y))GR_]”, the collision cross section [12] was 407.91 ± 1.2 Å².
GDAGEPGR [_GDAGEP(Hydroxyproline)GR_] gave a collision cross section [22] of 292.85 ± 1.1 Å².
TTEETSKPK [_TTEETSK(GlyGly (K))PK_] gave a collision cross section [16] of 355.85 ± 0.24 Å² and a collision cross section [15] of 431.05 ± 2.7 Å².
Work on “ITGKNQVTATK [_ITGK(Dimethyl (K))NQVTATK_]” yielded a collision cross section [24] of 369.07 ± 1.1 Å² and a collision cross section [25] of 427.9 Å².
Sequence “GTITVSAQELKDNR [_GTITVSAQELK(Biotin)DNR_]” has a collision cross section [3] of 437.8 ± 0.23 Å² and a collision cross section [4] of 500.75 Å².
In the case of “VFIGNLNTLVVKK [_VFIGNLNTLVVK(hydroxyisobutyryl)K_]”, the collision cross section [8] is reported as 416.95 ± 0.83 Å² and the collision cross section [19] is reported as 490.45 ± 2.8 Å².
For “TTGFYSGFSEVAEKR [_TTGFYSGFSEVAEK(Dimethyl (K))R_]”, the collision cross section [24] was 453.39 ± 1.3 Å² and the collision cross section [25] was 504.73 ± 0.75 Å².
